The target of this assay is T1, full-length E. coli DnaK (residues 1–638) (Escherichia coli, UniProt P0A6Y8 1-638).
T1 construct: DnaK (Hsp70), Escherichia coli, residues 1-638; cloned from pTTQ19dnaK+ into pET28a; source: E. coli BL21(DE3), purified (Q Sepharose, DEAE-Sephacel, Superdex 200)
The experiment in a line: fluorescence polarisation; fluorescence anisotropy of FITC-B2 with 1-μM DnaK in buffer C (50-mM Tris-HCl pH 7.4, 20-mM MgCl2, 1-mM EDTA, 0.5-mM TCEP), DBeQ solutions in DMSO added, room temperature, 30-min incubation. The note with it: both partners purified. Background: Fluorescence polarisation rises when a labelled molecule tumbles more slowly, as on binding a larger partner.

*: point of attachment. FITC = O=C1OC2(c3ccc(O)cc3Oc3cc(O)ccc32)c2ccc(NC(=S)*)cc21; Ahx = NCCCCCC(=O)O

Results on one molecule are retold here after article PMC7948422, “Repurposing p97 inhibitors for chemical modulation of the bacterial ClpB–DnaK bichaperone system” (The Journal of Biological Chemistry, 2020).

T1 sequence (P0A6Y8 whole entry, the tested form may be a part): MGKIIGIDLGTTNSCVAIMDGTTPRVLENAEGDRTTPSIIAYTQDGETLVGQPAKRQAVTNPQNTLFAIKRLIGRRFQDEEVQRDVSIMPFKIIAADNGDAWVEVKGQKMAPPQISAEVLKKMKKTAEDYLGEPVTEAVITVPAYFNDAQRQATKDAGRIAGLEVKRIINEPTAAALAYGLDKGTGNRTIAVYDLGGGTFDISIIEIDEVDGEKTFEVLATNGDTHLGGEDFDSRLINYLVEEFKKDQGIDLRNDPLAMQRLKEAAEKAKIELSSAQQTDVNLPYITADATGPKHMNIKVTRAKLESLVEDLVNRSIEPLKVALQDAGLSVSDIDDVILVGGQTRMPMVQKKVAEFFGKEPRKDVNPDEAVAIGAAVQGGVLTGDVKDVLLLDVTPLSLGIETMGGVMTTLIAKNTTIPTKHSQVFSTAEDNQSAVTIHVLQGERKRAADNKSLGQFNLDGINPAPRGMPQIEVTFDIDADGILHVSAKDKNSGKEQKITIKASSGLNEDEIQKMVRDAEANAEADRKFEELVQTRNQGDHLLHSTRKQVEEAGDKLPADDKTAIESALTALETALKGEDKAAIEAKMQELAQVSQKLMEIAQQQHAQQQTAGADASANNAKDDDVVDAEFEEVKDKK

B1: FITC-B2 (FITC-Ahx-QRKLFFNLRKTKQRLGWFNQ-NH2) (peptide)
peptide: {FITC-Ahx}-QRKLFFNLRKTKQRLGWFNQ-NH2
SMILES: CC(C)C[C@H](NC(=O)[C@H](CCCNC(=N)N)NC(=O)[C@H](CCC(N)=O)NC(=O)[C@H](CCCCN)NC(=O)[C@@H](NC(=O)[C@H](CCCCN)NC(=O)[C@H](CCCNC(=N)N)NC(=O)[C@H](CC(C)C)NC(=O)[C@H](CC(N)=O)NC(=O)[C@H](Cc1ccccc1)NC(=O)[C@H](Cc1ccccc1)NC(=O)[C@H](CC(C)C)NC(=O)[C@H](CCCCN)NC(=O)[C@H](CCCNC(=N)N)NC(=O)[C@H](CCC(N)=O)NC(=O)CCCCCNC(=S)Nc1ccc2c(c1)C(=O)OC21c2ccc(O)cc2Oc2cc(O)ccc21)[C@@H](C)O)C(=O)NCC(=O)N[C@@H](Cc1c[nH]c2ccccc12)C(=O)N[C@@H](Cc1ccccc1)C(=O)N[C@@H](CC(N)=O)C(=O)N[C@@H](CCC(N)=O)C(N)=O
notes: peptide B2, substrate-mimicking peptide; also called FITC-labeled peptide B2; substrate-mimicking peptide; source: obtained as described before (65)
As to B1, the binding result is recorded as “binds”.
